Where “and” joins values, the source holds several entries; their conditions need not be identical. Identical values can stand only once.
How the values were obtained:
Assay type in all cases: cell-based
HeLa cells [1] = test: Cellular uptake of drug (ruthenium metal complex), monitored by MTT assay; conditions: 24 hours, uptake correlated to cell death by MTT assay
Method: Cellular uptake of drug—HeLa cells were used for determining the enhanced uptake of the drug using the cell penetrating conjugate of the present invention. HeLa cells were seeded at a concentration of 10,000 in a 96-well plate and allowed to grow for 6-8 hours. Ruthenium metal complex and EfsQNR were mixed in different ratios of 1:1, 1:2, and 1:3 to form a conjugate, which was subsequently added to the cells. […] The cell death after 24 hours was monitored by MTT assay as described previously and was correlated to the percentage uptake of ruthenium-EfsQNR conjugate by HeLa cells.
FIG. 16 depicts the cellular uptake of the ruthenium metal complex Ru(CO)3Cl glycinate in HeLa cells. The ruthenium metal complex was conjugated with EfsQNR protein to form a conjugate consisting of ruthenium metal complex-EfsQNR. The HeLa cells were treated with the ruthenium metal complex-EfsQNR conjugate as described above (see “Cellular penetration studies” above) and uptake of the complex was detected by checking the viability of the cells by performing MTT assay as described previously. […] Therefore, it can be ascertained that the conjugate comprising EfsQNR protein facilitated 50-fold higher cellular uptake as compared to ruthenium metal complex alone. […]

HeLa cells [2] = test: MTT toxicity assay of AlbG and EfsQNR proteins; conditions: 30 μM protein; for viability as compared to the control cells: MTT; for absorbance values at 570 nm in MTT assay: triplicates, control wells 1.341-1.413
Method: Toxicity assay—The industry-standard MTT assay (ex-Sigma Aldrich) was performed to analyse the toxicity of β-helical protein-cytotoxic drug conjugates against mammalian cells, for example HeLa cells. The cells were cultured by using standard protocol. One million cells were seeded in confocal plates (1 cm dish), grown for 6-8 h. A mixture of the cytotoxic drug and the EfsQNR protein (mixed at a ratio of 2:1) was added to the cells and incubated at room temperature for 15 minutes to 24 h to 72 h. After the incubation, the cells were washed with PBS and treated with MTT and further incubated for 24 hours. The cells were then washed and analysed for absorbance values at 570 nm. Viable cells with active metabolism convert MTT into a purple coloured formazan product with an absorbance maximum near 570 nm. Dead cells cannot convert MTT into formazan therefore, by analysing the absorbance values at 570 nm percentage of viable cells can be calculated for a given protein or any other molecule.
MTT assay as described previously was employed to study toxicity of AlbG and EfsQNR proteins against HeLa cells. For the toxicity assay, samples of Placebo, control, AlbG (30 μM) and EfsQNR (30 μM) were used in triplicates. On observing the values, it can be appreciated that the cells treated with 30 μM of AlbG and 30 μM of EfsQNR display 95% viability as compared to the control cells.
The placebo for this experiment was 20 mM Tris buffer of pH 8.0, whereas, the control considered was only HeLa cells without adding any protein or other substrate.

[3] = tested on: drug resistant strains of bacteria (Pseudovibrio sp. Ad37/5/13/14 and Enterobacter); test: Uptake of A-520 labelled proteins in bacteria; conditions: protein labelled with green fluorescent dye (A-520), 10 μM, 24 hours
Method: (§1) The uptake of labelled proteins was checked by treating E-coli and yeast (Kluveromyces) cells with different labelled proteins such as AlbG (SEQ ID NO: 1), EfsQNR (SEQ ID NO: 2). E coli or Kluveromyces cells were inoculated and grown overnight until OD reached 0.6. The cells were diluted to 50 times and 3 micromolar labelled protein (conjugate) was added. The cells were further grown under standard growth condition (37° C. shaking condition) for 24 h. The treated cells were then centrifuged and washed in PBS for 3-4 times. Then the cells were dispersed in 100 microliter PBS and then imaged in fluorescence/confocal microscope.
(§2) • Respective bacteria and yeast strains were inoculated the day before the experiment and allowed to grow overnight; • The cells were centrifuged and 2 ml fresh media was added; • 100-200 μL of cells were added to the mixture; • 10 μM of green labelled CPP was added; • Fresh media was added to bring the volume to 1 mL; • After 24 hours the treated cells were centrifuged and washed in PBS 3-4 times; • the cells were dispersed in 100 microliter PBS and then imaged in fluorescence/confocal microscope (FIGS. 25 and 26). […]

[4] = tested on: yeast cells (Saccharomyces cerevisiae, Kluveromyces marxianus and Candida albicans); test: Uptake of A-520 labelled proteins in yeast cells; conditions: protein labelled with green fluorescent dye (A-520), 10 μM, 24 hours
Method: as §1, §2

[5] = tested on: plant cells (Arabidopsis); test: Uptake of A-520 labelled proteins in plant cells; conditions: protein labelled with green fluorescent dye (A-520), 20 μM, 24 hours
Method: • Respective bacteria and yeast strains were inoculated the day before the experiment and allowed to grow overnight; • The cells were centrifuged and 2 ml fresh media was added; • 100-200 μL of cells were added to the mixture; • 10 μM of green labelled CPP was added; • Fresh media was added to bring the volume to 1 mL; • After 24 hours the treated cells were centrifuged and washed in PBS 3-4 times; • the cells were dispersed in 100 microliter PBS and then imaged in fluorescence/confocal microscope (FIGS. 25 and 26). Protocol for Uptake in Plant Cells (Arabidopsis): • Plants were grown for 7 days prior to the experiment; • 20 μM of different cell-penetrating proteins such as AlbG (SEQ ID NO: 1), EfsQNR (SEQ ID NO: 2) labelled with a green fluorescent dye (A-520) were added to the plants in buffer [3 plants grown for 7 days] in 500 μL PBS; • The mixture was placed in a growth room for 24 hours under standard growth conditions (kept static in a room of continuous supply of light and 23° C. temperature); • The plants were washed with PBS 3 times and fresh PBS was then added and cells visualized under microscope. Non-coloured cells such as the cells of the roots and stems were chosen for visualisation to avoid interference (FIGS. 23 and 24). […]

zebrafish embryos = test: Uptake of A-520 labelled proteins in zebrafish embryos; conditions: protein labelled with green fluorescent dye (A-520), 10 μM, 2 h
drosophila embryos = test: Uptake of A-520 labelled proteins in drosophila embryos; conditions: protein labelled with green fluorescent dye (A-520), 10 μM, 2 h

NCC(=O)O.[C-]#[O+].[C-]#[O+].[C-]#[O+].[Cl][Ru] [ruthenium metal complex, Ru(CO)3Cl glycinate]
cellular uptake (HeLa cells [1]): 0.5%

B1: EfsQNR: recombinant β helical pentapeptide-repeat protein EfsQNR, amino acid sequence SEQ ID NO: 2 (protein)
chain: GSHMKITYPLPPNLPEQLPLLTNCQLEDEAILENHLYQQIDLPNQEVRNLVFRDAVFDHLSLANGQFASFDCSNVRFEACDFSNVEWLSGSFHRVTFLRCNLTGTNFADSYLKDCLFEDCKADYASFRFANFNLVHFNQTRLVESEFFEVTWKKLLLEACDLTESNWLNTSLKGLDFSQNTFERLTFSPNYLSGLKVTPEQAIYLASALGLVIT
modifications: Amino acid sequence of EfsQNR protein
viability as compared to the control cells (HeLa cells [2]): 95%
absorbance values at 570 nm in MTT assay (HeLa cells [2]): 0.901 and 1.111 and 0.971
uptake observed by confocal laser scanning microscopy [3]: taken up
uptake observed by confocal laser scanning microscopy [4]: taken up
uptake observed by confocal laser scanning microscopy [5]: taken up
uptake observed by confocal laser scanning microscopy (zebrafish embryos): taken up
uptake observed by confocal laser scanning microscopy (drosophila embryos): taken up

B2: AlbG: recombinant β helical pentapeptide-repeat protein AlbG, amino acid sequence SEQ ID NO: 1 (protein)
chain: MPAKTLESKDYCGESFVSEDRSGQSLESIRFEDCTFRQCNFTEAELNRCKFRECEFVDCNLSLISIPQTSFMEVRFVDCKMLGVNWTSAQWPSVKMEGALSFERCILNDSLFYGLYLAGVKMVECRIHDANFTEADCEDADFTQSDLKGSTFHNTKLTGASFIDAVNYHIDIFHNDIKRARFSLPEAASLLNSLDIELSD
modifications: Amino acid sequence of AlbG protein
viability as compared to the control cells (HeLa cells [2]): 95%
absorbance values at 570 nm in MTT assay (HeLa cells [2]): 1.03 and 0.932 and 1.002
uptake observed by confocal laser scanning microscopy [3]: taken up
uptake observed by confocal laser scanning microscopy [4]: taken up
uptake observed by confocal laser scanning microscopy [5]: taken up
uptake observed by confocal laser scanning microscopy (zebrafish embryos): taken up
uptake observed by confocal laser scanning microscopy (drosophila embryos): taken up
